We go through 17 sequences from the nanobody polyreactivity screen of Harvey et al. (2022).

The nature of this series: yeast display, Sf9 membrane polyspecificity reagent, FACS + sequencing; frameworks hold sequencing errors. The procedure, abridged:
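After 36–48 hours of galactose induction, yeast (Saccharomyces cerevisiae BJ5465) displaying a synthetic nanobody library were stained at 4 °C for 1 hour with 10% biotinylated, detergent-solubilized Sf9 membrane reagent. Streptavidin microbeads enriched the stained cells before FACS sorting into low and high (top ~1%) gates on anti-HA and streptavidin fluorescence. Each clone's polyreactivity label reflects its gate of origin.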
For “QVQLVVSGGGLVQAGGSLRLSCAASGYIFYANAMGWYRQAPGKEWELVAAITQSGGRTYYADSVKGRFTISRDNAKNTVYLQMNSLKPEDTAVYYCAAQPWRALGYYYWGQGTQVTVSS”, the “polyreactivity (PSR sort gate)” value is “high polyreactivity”.
To “QVQLVYSGGGLVQAGGSLRLSCAASGRTFARYAMGWYIQAPWKERELVAAITRSGGSTTYADSVKGLFTISRDNAKNTVYVQLYSLKPVYTAVYFCASSTSLRLDYWGQGTQVTVSS” belongs “high polyreactivity”; to “QVQMQESGGGLEQAGGSLRLSCAASGNISGFGYMGWYRQAPGKEREFVAAISYGTSTYYADSVKGLFTISRDNAKNTVYLQINSLKPEDTAVFYCAALCLISKHHHYWGEGTQVTVSS”, “high polyreactivity”; to “QVQNVESGGGLVQARGSLRLSCAASGRTFTESDMGRYRQAPGKERELVAAITSVGSTYYADSVKGRFTISRYNAKNTVYLQMNSLKPEDTAVYYCAAEWQNTNMDYWGQGTQVTVSS”, “low polyreactivity”.
“QVQPQERGGGPVQACGSLRLSCAARGNILDADILGWYRLVPGKEGELVASITDGGSTNYAESVKGRFTLSRDNAINTVYHHMNSLKPEDTAVYYCAANARSHAEHDYWGQGTQVTVSS”: the “polyreactivity (PSR sort gate)” value is recorded as “low polyreactivity”.
For “QVQQHESGGGLVQAGGSLRLTCAASGTISESGLMGWYRQAPGKERELVAGISSGGITNYADSVKGRFTISRDIAINTVYLQMNSPKPEDTAEYWGQGSQVTVSS” the value was “low polyreactivity”; for “QVQQQESGGGLVQAGGSLRLSCAASGTIFQLTFMGRYRQAPGKERELVASIDYGGNTNYADSVKGRFTISRDNAKNNVYLQMNSLKPEDTAVYYCAASSDSWTTHPYWGQGTHVTVSS”, “low polyreactivity”; for “QVQREESGGGLVQAGGSLRLSCAASGITFKWYAMGWYRQAPGKEREFVAIISTRGGSTYYADSVKGRFTISRDNAKNTVYLQMNSLKPVDTAVYYCNAVRSRVVHRRGDFDYWGQGTQVTVSS”, “high polyreactivity”.
To “QVQREESGGGLVQAGGSLRLSCVASGSTFRYYAMGWYRQSPGTERELVAAITWRGTSTYYADSVKGRFTISRDNAKNTVYLQMNSLKPEDTAVYYCNAAGYWPATGDYWGQGTQVTVSW” belongs “high polyreactivity”; to “QVQRVESGGCLVQAGGSLRLSCAASGIIFGDNVRGWYRQSPGKERQLVAAITSDGSTNYADSVKGRFTISSDNEKNNVYLQMNSLKPEDTAVYYCNVSASYYSPDPKVLVRYDYWGQGSQVTVSS”, “low polyreactivity”.
For “QVQRVESGGGIVQAGVSLSLSCPASGRIFTSNAMGWYRQEPGKERELVAAIRWSDGSTYYADSVKGRFTISRDNAKNTVYLQMNSLKPEDTAVYYCAADTRTSYYNDDYVFWGQGTQVTVSS” the value was “low polyreactivity”.
For “QVQRVESGGGLVPAGGSLRLSCAASGSIFYYNAMGWYRQAPGKERELVAAISWGDGITYYADSVKGRFTISRDNAKKTVYVQMNSLKPEDTAVYYCAVDYYYLPYEYWGQGTQVTVSS”, the “polyreactivity (PSR sort gate)” value is listed as “high polyreactivity”.
For the sequence “QVQRVESGGGLVQAGGRLRLSCAASGLIFAHDARGWYRQAPGKERELVAGINRSGGSTYYADSVKGRFTISRDNAKNTVYLQTNSLKPEDTAVYYCAARRAYPRPGYDYWGQGTQVTVSS”, the “polyreactivity (PSR sort gate)” value is on record as “high polyreactivity”.
To “QVQRVESGGGLVQAGGSLRISCAASGLTINNYARGWYRQAPGKERELVAAISFSGGDTYYADSVKGRFTISRDNAKNTVYLQMNSLKPEDTGVYYFAAESYSVLQMGYWGQGTQVTVSS” belongs “high polyreactivity”; to “QVQRVESGGGLVQAGGSLRLSCAASAFTFGANAMGWSRQAPGKERELVAAISVSDGITYYADSVKGRFTISRDNAKNTVYLLMNSLKPEDTAVYYCAAETYGYLFHSYDYWGQGTQVTVSS”, “low polyreactivity”.
For “QVQRVESGGGLVQAGGSLRLSCAASANTYLNAMGWYIQAPGKESELVAAISKGGADTYYADSVKGRFTISRDNAKNTVYLQMTSLIPEDSAVYYCADVGYADGWWVDYPWTYDYWGQGTQVTVSS” the value was “low polyreactivity”.
For “QVQRVESGGGLVQAGGSLRLSCAASGFIFPWYAMGWYRQAPGKESELVAAISRGGRTNYADSVKGRFTISRDNAKNTVYLQMNSLKPEDTAVYYCAKKYYLSGSRADDSGGQGTQVTVSS” the value was “high polyreactivity”.
